Reference: patent publication US20210388105A1 (ELPISCIENCE SUZHOU BIOPHARMA, published 2021)

Columns and labels:
[1] = biological target: T1, human CD39 (full length, on cells) (human, UniProt P49961 1-510); experiment: FACS, MOLP-8 cells
T1 construct: Recombinant on CHOK1-hCD39 cells or natural on SK-MEL-28, SK-MEL-5 and MOLP-8 cells; the cell line is named under assay; also called hCD39; ENTPD1
T1 sequence: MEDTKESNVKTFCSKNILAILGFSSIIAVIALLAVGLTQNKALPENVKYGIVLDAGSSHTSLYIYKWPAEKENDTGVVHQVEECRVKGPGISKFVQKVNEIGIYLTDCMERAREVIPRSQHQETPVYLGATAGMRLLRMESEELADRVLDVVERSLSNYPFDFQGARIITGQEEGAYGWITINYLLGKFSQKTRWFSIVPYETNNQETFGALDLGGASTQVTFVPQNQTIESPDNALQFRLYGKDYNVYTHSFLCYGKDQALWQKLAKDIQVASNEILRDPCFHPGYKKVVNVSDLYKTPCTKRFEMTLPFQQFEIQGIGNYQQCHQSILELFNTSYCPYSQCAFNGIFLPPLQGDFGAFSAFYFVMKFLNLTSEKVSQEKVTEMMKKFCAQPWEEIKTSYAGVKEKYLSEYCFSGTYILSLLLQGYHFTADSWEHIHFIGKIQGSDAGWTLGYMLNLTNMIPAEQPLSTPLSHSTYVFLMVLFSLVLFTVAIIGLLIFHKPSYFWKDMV
Protocol: Similarly, human CD39 expressing cells SK-MEL-5, SK-MEL-28 or MOLP-8, were incubated with a gradient concentration of anti-CD39 antibodies for 30 minutes at 4° C. Cells were washed 3 times using FACS buffer and next incubated with fluorescence labelled secondary antibody (goat-anti-mouse IgG or goat anti-human IgG) for 30 minutes at 4° C. Cells were washed 3 times and then re-suspended in FACS buffer and analyzed by flow cytometry analysis on BD Celesta. Data plotted and analyzed using GraphPad Prism 8.02.
The binding affinity of the humanized antibodies for c23 was determined by FACS, using similar methods as described in Example 3.2. The c23 humanized antibody clones showing good binding affinity are listed in below Table 19 and Table 20, and also shown in FIGS. 7A, 7B and FIG. 8. EC₅₀ is the concentration of the indicated antibodies to reach 50% of the signal in this assay.

[2] = biological target: T1, human CD39 (full length, on cells); experiment: cell-based or functional assay

| Binder | EC50 [1] [nM] | ATPase inhibition IC50 on SK-MEL-28 cells [2] [nM] | binding result [1] |
| --- | --- | --- | --- |
| hu23.H2L2 (antibody, V domains shown, humanized c23) VH: QVQLVQSGAEVKKPGASVKVSCKASGYNLKDTFLHWVRQAPGQGLEWMGRIDPANGNIKYDPKFQGRVTITADTSASTAYMELSSLRSEDTAVYYCANSPYYYGSGYRIFDVWGQGTTVTVSS VL: EIVLTQSPATLSLSPGERATLSCSAFSSVNYMHWYQQKPGQAPRLLIYTTSNLASGIPARFSGSGSGTDYTLTISSLEPEDFAVYYCQQRSTYPFTFGQGTKLEIK | 0.979 | 0.767 |  |
| hu23.H7L6 (antibody, V domains shown, humanized c23) VH: EVQLVQSGAEVKKPGASVKLSCKASGYNLKDTFLHWVKQAPGQGLEWIGRIDPANGNIKYDPKFQGKATLTADTSANTAYLELISLRSEDTAVYYCANSPYYYGSGYRIFDVWGQGTTVTVSS VL: QIVLTQSPATLSASPGERATLSCSAFSSVNYMHWYQQKPGQAPKLLIYTTSNLASGVPTRFSGSGSGTSYTLTISSMEPEDFAVYYCQQRSTYPFTFGQGTKLEIK | 0.271 | 0.121 |  |
| hu23.H6L7 (antibody, V domains shown, humanized c23) VH: EVQLVQSGAEVKKPGASVKLSCKASGYNLKDTFLHWVRQAPGQGLEWIGRIDPANGNIKYDPKFQGRATITADTSANTAYMELISLRSEDTAVYYCANSPYYYGSGYRIFDVWGQGTTVTVSS VL: QIVLTQSPATLSASPGERVTITCSAFSSVNYMHWYQQKPGQAPKLLIYTTSNLASGVPTRFSGSGSGTSYTLTISSMEPEDFAVYYCQQRSTYPFTFGQGTKLEIK | 0.122 |  |  |
| hu23.H6L6 (antibody, V domains shown, humanized c23) VH: EVQLVQSGAEVKKPGASVKLSCKASGYNLKDTFLHWVRQAPGQGLEWIGRIDPANGNIKYDPKFQGRATITADTSANTAYMELISLRSEDTAVYYCANSPYYYGSGYRIFDVWGQGTTVTVSS VL: QIVLTQSPATLSASPGERATLSCSAFSSVNYMHWYQQKPGQAPKLLIYTTSNLASGVPTRFSGSGSGTSYTLTISSMEPEDFAVYYCQQRSTYPFTFGQGTKLEIK | 0.237 |  |  |
| hu23.H7L5 (antibody, V domains shown, humanized c23) VH: EVQLVQSGAEVKKPGASVKLSCKASGYNLKDTFLHWVKQAPGQGLEWIGRIDPANGNIKYDPKFQGKATLTADTSANTAYLELISLRSEDTAVYYCANSPYYYGSGYRIFDVWGQGTTVTVSS VL: QIVLTQSPATLSLSPGERATLSCSAFSSVNYMHWYQQKPGQAPRLLIYTTSNLASGIPTRFSGSGSGTSYTLTISSLEPEDFAVYYCQQRSTYPFTFGQGTKLEIK | 0.25 | 0.144 |  |
| hu23.H7L7 (antibody, V domains shown, humanized c23) VH: EVQLVQSGAEVKKPGASVKLSCKASGYNLKDTFLHWVKQAPGQGLEWIGRIDPANGNIKYDPKFQGKATLTADTSANTAYLELISLRSEDTAVYYCANSPYYYGSGYRIFDVWGQGTTVTVSS VL: QIVLTQSPATLSASPGERVTITCSAFSSVNYMHWYQQKPGQAPKLLIYTTSNLASGVPTRFSGSGSGTSYTLTISSMEPEDFAVYYCQQRSTYPFTFGQGTKLEIK | 0.25 |  |  |
| hu23.H1L2 (antibody, V domains shown, humanized c23) VH: QVQLVQSGAEVKKPGASVKVSCKASGYNLKDTFLHWVRQAPGQRLEWMGRIDPANGNIKYDPKFQGRVTITRDTSASTAYMELSSLRSEDTAVYYCARSPYYYGSGYRIFDVWGQGTTVTVSS VL: EIVLTQSPATLSLSPGERATLSCSAFSSVNYMHWYQQKPGQAPRLLIYTTSNLASGIPARFSGSGSGTDYTLTISSLEPEDFAVYYCQQRSTYPFTFGQGTKLEIK | 1.16 | 0.964 |  |
| hu23.H4L3 (antibody, V domains shown, humanized c23) VH: QVQLVQSGAEVKKPGASVKLSCKASGYNLKDTFLHWVKQAPGQGLEWIGRIDPANGNIKYDPKFQGRATLTADTSASTAYLELSSLRSEDTAVYYCANSPYYYGSGYRIFDVWGQGTTVTVSS VL: EIVLTQSPATLSASPGERATLSCSAFSSVNYMHWYQQKPGQAPRLLIYTTSNLASGIPARFSGSGSGTDYTLTISSMEPEDFAVYYCQQRSTYPFTFGQGTKLEIK | 1.87 |  |  |
| hu23.H6L5 (antibody, V domains shown, humanized c23) VH: EVQLVQSGAEVKKPGASVKLSCKASGYNLKDTFLHWVRQAPGQGLEWIGRIDPANGNIKYDPKFQGRATITADTSANTAYMELISLRSEDTAVYYCANSPYYYGSGYRIFDVWGQGTTVTVSS VL: QIVLTQSPATLSLSPGERATLSCSAFSSVNYMHWYQQKPGQAPRLLIYTTSNLASGIPTRFSGSGSGTSYTLTISSLEPEDFAVYYCQQRSTYPFTFGQGTKLEIK | 0.593 |  |  |
| hu23.H4L2 (antibody, V domains shown, humanized c23) VH: QVQLVQSGAEVKKPGASVKLSCKASGYNLKDTFLHWVKQAPGQGLEWIGRIDPANGNIKYDPKFQGRATLTADTSASTAYLELSSLRSEDTAVYYCANSPYYYGSGYRIFDVWGQGTTVTVSS VL: EIVLTQSPATLSLSPGERATLSCSAFSSVNYMHWYQQKPGQAPRLLIYTTSNLASGIPARFSGSGSGTDYTLTISSLEPEDFAVYYCQQRSTYPFTFGQGTKLEIK | 1.15 |  |  |
| hu23.H5L6 (antibody, V domains shown, humanized c23) VH: QVQLVQSGAEVKKPGASVKVSCKASGYNLKDTFLHWVRQAPGQGLEWMGRIDPANGNIKYDPKFQGRVTITADTSANTAYMELISLRSEDTAVYYCANSPYYYGSGYRIFDVWGQGTTVTVSS VL: QIVLTQSPATLSASPGERATLSCSAFSSVNYMHWYQQKPGQAPKLLIYTTSNLASGVPTRFSGSGSGTSYTLTISSMEPEDFAVYYCQQRSTYPFTFGQGTKLEIK | 0.202 | 0.13 |  |
| hu23.H6L1 (antibody, V domains shown, humanized c23) VH: EVQLVQSGAEVKKPGASVKLSCKASGYNLKDTFLHWVRQAPGQGLEWIGRIDPANGNIKYDPKFQGRATITADTSANTAYMELISLRSEDTAVYYCANSPYYYGSGYRIFDVWGQGTTVTVSS VL: EIVLTQSPATLSLSPGERATLSCSAFSSVNYMHWYQQKPGQAPRLLIYTTSNLASGIPARFSGSGSGTDFTLTISSLEPEDFAVYYCQQRSTYPFTFGQGTKLEIK | 0.246 |  |  |
| hu23.H7L1 (antibody, V domains shown, humanized c23) VH: EVQLVQSGAEVKKPGASVKLSCKASGYNLKDTFLHWVKQAPGQGLEWIGRIDPANGNIKYDPKFQGKATLTADTSANTAYLELISLRSEDTAVYYCANSPYYYGSGYRIFDVWGQGTTVTVSS VL: EIVLTQSPATLSLSPGERATLSCSAFSSVNYMHWYQQKPGQAPRLLIYTTSNLASGIPARFSGSGSGTDFTLTISSLEPEDFAVYYCQQRSTYPFTFGQGTKLEIK | 0.366 | 0.147 |  |
| hu23.H1L4 (antibody, V domains shown, humanized c23) VH: QVQLVQSGAEVKKPGASVKVSCKASGYNLKDTFLHWVRQAPGQRLEWMGRIDPANGNIKYDPKFQGRVTITRDTSASTAYMELSSLRSEDTAVYYCARSPYYYGSGYRIFDVWGQGTTVTVSS VL: EIVLTQSPATLSASPGERVTISCSAFSSVNYMHWYQQKPGQAPRLLIYTTSNLASGIPARFSGSGSGTDYTLTISSMEPEDFAVYYCQQRSTYPFTFGQGTKLEIK | 1.5 | 0.59 |  |
| hu23.H5L7 (antibody, V domains shown, humanized c23) VH: QVQLVQSGAEVKKPGASVKVSCKASGYNLKDTFLHWVRQAPGQGLEWMGRIDPANGNIKYDPKFQGRVTITADTSANTAYMELISLRSEDTAVYYCANSPYYYGSGYRIFDVWGQGTTVTVSS VL: QIVLTQSPATLSASPGERVTITCSAFSSVNYMHWYQQKPGQAPKLLIYTTSNLASGVPTRFSGSGSGTSYTLTISSMEPEDFAVYYCQQRSTYPFTFGQGTKLEIK | 0.179 |  |  |
| hu23.H4L4 (antibody, V domains shown, humanized c23) VH: QVQLVQSGAEVKKPGASVKLSCKASGYNLKDTFLHWVKQAPGQGLEWIGRIDPANGNIKYDPKFQGRATLTADTSASTAYLELSSLRSEDTAVYYCANSPYYYGSGYRIFDVWGQGTTVTVSS VL: EIVLTQSPATLSASPGERVTISCSAFSSVNYMHWYQQKPGQAPRLLIYTTSNLASGIPARFSGSGSGTDYTLTISSMEPEDFAVYYCQQRSTYPFTFGQGTKLEIK | 1.01 | 0.487 |  |
| hu23.H5L1 (antibody, V domains shown, humanized c23) VH: QVQLVQSGAEVKKPGASVKVSCKASGYNLKDTFLHWVRQAPGQGLEWMGRIDPANGNIKYDPKFQGRVTITADTSANTAYMELISLRSEDTAVYYCANSPYYYGSGYRIFDVWGQGTTVTVSS VL: EIVLTQSPATLSLSPGERATLSCSAFSSVNYMHWYQQKPGQAPRLLIYTTSNLASGIPARFSGSGSGTDFTLTISSLEPEDFAVYYCQQRSTYPFTFGQGTKLEIK | 0.262 |  |  |
| hu23.H4L1 (antibody, V domains shown, humanized c23) VH: QVQLVQSGAEVKKPGASVKLSCKASGYNLKDTFLHWVKQAPGQGLEWIGRIDPANGNIKYDPKFQGRATLTADTSASTAYLELSSLRSEDTAVYYCANSPYYYGSGYRIFDVWGQGTTVTVSS VL: EIVLTQSPATLSLSPGERATLSCSAFSSVNYMHWYQQKPGQAPRLLIYTTSNLASGIPARFSGSGSGTDFTLTISSLEPEDFAVYYCQQRSTYPFTFGQGTKLEIK |  |  | no binding |
